Data reported in publication PMC10946326.

Assays:
[1] = target: T1, MORF WH1 (Homo sapiens, UniProt Q8WYB5 5-84); assay: EMSA
T1 sequence: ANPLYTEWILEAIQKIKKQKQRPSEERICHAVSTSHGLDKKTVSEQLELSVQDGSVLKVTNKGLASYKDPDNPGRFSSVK

[2] = target: T2, MOZ WH1 (Homo sapiens, UniProt Q92794 2-86); assay: NMR
T2 sequence: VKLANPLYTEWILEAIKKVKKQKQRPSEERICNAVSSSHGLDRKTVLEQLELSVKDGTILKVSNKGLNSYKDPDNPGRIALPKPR

[3] = target: MORF WH1;p300 TAZ2 (Homo sapiens;Homo sapiens?, UniProt Q8WYB5;Q09472 5-84;1722-1812, |); assay: NMR

Measured: binding result

Sequence of MORF WH1;p300 TAZ2 (Q09472 1722-1812, one chain of several): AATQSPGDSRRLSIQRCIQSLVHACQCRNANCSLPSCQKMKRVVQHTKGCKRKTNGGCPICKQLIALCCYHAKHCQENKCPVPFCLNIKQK

B1: CpG-DNA16 (dsDNA)
DNA 1: TAACCTGCGCACCATA
DNA 2: TATGGTGCGCAGGTTA
binds: all assays above
